The assay deals with protocadherin-15 EC1+2 R113G, His-tagged (mouse), Q99PJ1. Description: thermal scanning (thermal stability shift assay with SYPRO orange); pcdh15 fixed at 0.1 mg/mL (~4 μM), cdh23 0.1 to 0.5 mg/mL (~4 to 20 μM; cdh23:pcdh15 1:1 to 5:1); SEC buffer (20 mM Tris-HCl pH 7.5, 150 mM KCl, 50 mM NaCl, 2 mM CaCl2); 10 to 95°C in 0.2°C steps, 5 s equilibration; read-out: shift of the Tm of pcdh15 (ΔTm). The note with it: remark: other sources report otherwise.

Drawing on paper PMC5736220, this text covers ΔTm of pcdh15 for one molecule.

B1: cadherin-23 EC1+2, wild type, His-tagged, Q99PF4 24-228 (domain or fragment)
chain: QVNRLPFFTNHFFDTYLLISEDTPVGSSVTQLLARDMDNDPLVFGVSGEEASRFFAVEPDTGVVWLRQPLDRETKSEFTVEFSVSDHQGVITRKVNIQVGDVNDNAPTFHNQPYSVRIPENTPVGTPIFIVNATDPDLGAGGSVLYSFQPPSPFFAIDSARGIVTVIQELDYEVTQAYQLTVNATDQDKTRPLSTLANLAIIITD
On to B1, for which the ΔTm of pcdh15 at cdh23:pcdh15 1:1 is -0.6 °C, the ΔTm of pcdh15 at cdh23:pcdh15 2:1 amounted to 0.2 °C, the ΔTm of pcdh15 at cdh23:pcdh15 3:1 was 1 °C and the ΔTm of pcdh15 at cdh23:pcdh15 4:1 came out at 1.3 °C. The ΔTm of pcdh15 at cdh23:pcdh15 5:1 stood at 1.5 °C.
